As a reminder, the stoichiometry N is the number of molecules, sites or subunits per partner or assembly. The term Kd denotes the concentration at which binding is half-saturated. Higher therefore signals lower affinity.

The target in data set [1] is PduOC-His18Ala (H18A) mutant (Salmonella enterica subsp. enterica serovar Typhimurium). Put plainly: SEC-MALS; Superdex 200 increase 10/300 GL in 100 mM Tris-HCl pH 8, 150 mM NaCl, with multi-angle static light scattering and refractive index detectors; wild type as PduOC:heme, H18A without heme. Background: Size exclusion chromatography separates by hydrodynamic size, large species first.

The target of data set [2] is T1, PduO C-terminal domain (PduOC) (Salmonella enterica, UniProt A0A0F6B395).
T1 construct: C-terminal domain PduOC, 147 residues, His-tag-free; octamer with 4 hemes
Put plainly: crystal structure ([…] Å) and ITC; UV/Vis titration. The data set is classed as binding.

Data set [3] concerns the molecule itself. Briefly: SEC-MALS; Superdex 200 increase 10/300 GL in 100 mM Tris-HCl pH 8, 150 mM NaCl, with multi-angle static light scattering and refractive index detectors; wild type as PduOC:heme, H18A without heme.
Data set [4] concerns the molecule itself. Put plainly: SEC; gel filtration of the PduOC apoprotein (heme extracted); data not shown.

For “PduOC-His18Ala (H18A) mutant (domain or fragment)”, the stoichiometry N in data set [1] turned out to be 2.
On to `C=CC1=C(C)C2=Cc3c(C=C)c(C)c4[n]3[Fe][n]3c(c(C)c(CCC(=O)O)c3=CC3=NC(=C4)C(C)=C3CCC(=O)O)=CC1=N2` [heme B], for which the Kd in data set [2] was 160 nM.

B1: C-terminal domain of the Salmonella enterica PduO protein (PduOC) (domain or fragment)
chain: KETTPVALSFHDLHQLTRAAVERAQQLQVPVVVSIVDAHGTETVTWRMPDALLVSSELAPKKAWTAVAMKTATHELSDVVQPGAALYGLESHLQGKVVTFGGGYALWRDGILIGGLGISGGSVEQDMDIAQTAIAAINVGTHQ
notes: PduO, ATP:Cob(I)alamin adenosyltransferase of S. enterica subsp. enterica serovar Typhimurium; C-terminal domain (PduOC); the His-tag-free monomer has 147 residues; the N-terminal domain (PduON) has 197 residues; excess heme B added to the lysate for crystallography; Residues left by the pETM11 vector after TEV cleavage are probably counted in the 147 residues (surmise); also called PduOC:heme; …
In the case of B1, the “stoichiometry N” value in data set [3] was 8; in data set [4], 2.

Values taken from PMC4923194, “The Crystal Structure of the C-Terminal Domain of the Salmonella enterica PduO Protein: An Old Fold with a New Heme-Binding Mode” (Frontiers in Microbiology, 2016).
